What all share (conditions): remark: other sources report otherwise
Experiment [1] concerns the target T1, E2 ubiquitin-conjugating enzyme USE1 (endogenous, wild type) (human (endogenous in HEK293T, human fibroblasts and iPSC-derived neurons)), Q9H832.
T1 chain: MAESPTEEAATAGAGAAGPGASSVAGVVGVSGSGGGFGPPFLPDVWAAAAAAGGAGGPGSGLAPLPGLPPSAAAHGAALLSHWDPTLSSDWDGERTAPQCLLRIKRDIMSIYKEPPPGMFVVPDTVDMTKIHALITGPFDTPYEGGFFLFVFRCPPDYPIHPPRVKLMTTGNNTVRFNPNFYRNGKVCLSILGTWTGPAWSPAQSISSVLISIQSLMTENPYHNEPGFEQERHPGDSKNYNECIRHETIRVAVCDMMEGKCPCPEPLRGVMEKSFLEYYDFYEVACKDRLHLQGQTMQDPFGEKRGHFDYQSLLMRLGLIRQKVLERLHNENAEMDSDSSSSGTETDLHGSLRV
The experiment can be described thus: FRET or BRET; FLIM-FRET (two-photon FLIM) in iPSC-derived autonomic neurons of healthy controls; endogenous USE1 (donor, Alexa 488) and UBA6 (acceptor, Alexa 555); lifetime of donor only minus donor and acceptor.

Experiment [2] concerns the target T1, E2 ubiquitin-conjugating enzyme USE1 …. In words: FRET or BRET; FLIM-FRET (two-photon FLIM) in iPSC-derived autonomic neurons of CCHS patients (PHOX2B polyalanine expansion); endogenous USE1 (donor, Alexa 488) and UBA6 (acceptor, Alexa 555); lifetime of donor only minus donor and acceptor. For orientation: Bioluminescence resonance energy transfer reports proximity on the nanometre scale.

For experiment [3] the target is unchanged. In words: FRET or BRET; FLIM-FRET (two-photon FLIM) in fixed WT and USE1 ΔPolyAla KO HEK293T cells; endogenous USE1 and UBA6 stained, secondary antibodies Alexa 488 (donor, USE1) and Alexa 555 (acceptor, UBA6); lifetime of donor only minus donor and acceptor.

B1: E1 ubiquitin-activating enzyme UBA6 (endogenous), A0AVT1 1-1052 (enzyme)
chain: MEGSEPVAAHQGEEASCSSWGTGSTNKNLPIMSTASVEIDDALYSRQRYVLGDTAMQKMAKSHVFLSGMGGLGLEIAKNLVLAGIKAVTIHDTEKCQAWDLGTNFFLSEDDVVNKRNRAEAVLKHIAELNPYVHVTSSSVPFNETTDLSFLDKYQCVVLTEMKLPLQKKINDFCRSQCPPIKFISADVHGIWSRLFCDFGDEFEVLDTTGEEPKEIFISNITQANPGIVTCLENHPHKLETGQFLTFREINGMTGLNGSIQQITVISPFSFSIGDTTELEPYLHGGIAVQVKTPKTVFFESLERQLKHPKCLIVDFSNPEAPLEIHTAMLALDQFQEKYSRKPNVGCQQDSEELLKLATSISETLEEKPDVNADIVHWLSWTAQGFLSPLAAAVGGVASQEVLKAVTGKFSPLCQWLYLEAADIVESLGKPECEEFLPRGDRYDALRACIGDTLCQKLQNLNIFLVGCGAIGCEMLKNFALLGVGTSKEKGMITVTDPDLIEKSNLNRQFLFRPHHIQKPKSYTAADATLKINSQIKIDAHLNKVCPTTETIYNDEFYTKQDVIITALDNVEARRYVDSRCLANLRPLLDSGTMGTKGHTEVIVPHLTESYNSHRDPPEEEIPFCTLKSFPAAIEHTIQWARDKFESSFSHKPSLFNKFWQTYSSAEEVLQKIQSGHSLEGCFQVIKLLSRRPRNWSQCVELARLKFEKYFNHKALQLLHCFPLDIRLKDGSLFWQSPKRPPSPIKFDLNEPLHLSFLQNAAKLYATVYCIPFAEEDLSADALLNILSEVKIQEFKPSNKVVQTDETARKPDHVPISSEDERNAIFQLEKAILSNEATKSDLQMAVLSFEKDDDHNGHIDFITAASNLRAKMYSIEPADRFKTKRIAGKIIPAIATTTATVSGLVALEMIKVTGGYPFEAYKNCFLNLAIPIVVFTETTEVRKTKIRNGISFTIWDRWTVHGKEDFTLLDFINAVKEKYGIEPTMVVQGVKMLYVPVMPGHAKRLKLTMHKLVKPTTEKKYVDLTVSFAPDIDGDEDLPGPPVRYYFSHDTD
Consider B1, for which the difference in fluorescence lifetime (donor only minus donor and acceptor) in experiment [1] was 0.253; in experiment [2], 0.025. This molecule returned a difference in fluorescence lifetime (donor only to donor and acceptor) in experiment [3] of 0.099 ns.

The values above are taken from article PMC10897158.
